Data taken from publication PMC10540216, “Activity Guided Azide-methyllysine Photo-trapping for Substrate Profiling of Lysine Demethylases” (Journal of the American Chemical Society, 2023).

B1: SNW1_HUMAN (protein, UniProt Q13573 2-536, looked up)
SNW domain-containing protein …: ALTSFLPAPTQLSQDQLEAEEKARSQRSRQTSLVSSRREPPPYGYRKGWIPRLLEDFGDGGAFPEIHVAQYPLDMGRKKKMSNALAIQVDSEGKIKYDAIARQGQSKDKVIYSKYTDLVPKEVMNADDPDLQRPDEEAIKEITEKTRVALEKSVSQKVAAAMPVRAADKLAPAQYIRYTPSQQGVAFNSGAKQRVIRMVEMQKDPMEPPRFKINKKIPRGPPSPPAPVMHSPSRKMTVKEQQEWKIPPCISNWKNAKGYTIPLDKRLAADGRGLQTVHINENFAKLAEALYIADRKAREAVEMRAQVERKMAQKEKEKHEEKLREMAQKARERRAGIKTHVEKEDGEARERDEIRHDRRKERQHDRNLSRAAPDKRSKLQRNENRDISEVIALGVPNPRTSNEVQYDQRLFNQSKGMDSGFAGGEDEIYNVYDQAWRGGKDMAQSIYRPSKNLDKDMYGDDLEARIKTNRFVPDKEFSGSDRRQRGREGPVQFEEDPFGLDKFLEEAKQHGGSKRPSDSSRPKEHEHEGKKRRKE
B2: LAP2A_HUMAN (protein, UniProt P42166 2-694, looked up)
Lamina-associated polypeptide …: PEFLEDPSVLTKDKLKSELVANNVTLPAGEQRKDVYVQLYLQHLTARNRPPLPAGTNSKGPPDFSSDEEREPTPVLGSGAAAAGRSRAAVGRKATKKTDKPRQEDKDDLDVTELTNEDLLDQLVKYGVNPGPIVGTTRKLYEKKLLKLREQGTESRSSTPLPTISSSAENTRQNGSNDSDRYSDNEEGKKKEHKKVKSTRDIVPFSELGTTPSGGGFFQGISFPEISTRPPLGSTELQAAKKVHTSKGDLPREPLVATNLPGRGQLQKLASERNLFISCKSSHDRCLEKSSSSSSQPEHSAMLVSTAASPSLIKETTTGYYKDIVENICGREKSGIQPLCPERSHISDQSPLSSKRKALEESESSQLISPPLAQAIRDYVNSLLVQGGVGSLPGTSNSMPPLDVENIQKRIDQSKFQETEFLSPPRKVPRLSEKSVEERDSGSFVAFQNIPGSELMSSFAKTVVSHSLTTLGLEVAKQSQHDKIDASELSFPFHESILKVIEEEWQQVDRQLPSLACKYPVSSREATQILSVPKVDDEILGFISEATPLGGIQAASTESCNQQLDLALCRAYEAAASALQIATHTAFVAKAMQADISQAAQILSSDPSRTHQALGILSKTYDAASYICEAAFDEVKMAAHTMGNATVGRRYLWLKDCKINLASKNKLASTPFKGGTLFGGEVCKVIKKRGNKH
B3: K2C1B_HUMAN (protein, UniProt Q7Z794 1-578, looked up)
Keratin, type II cytoskeletal …: MSHQFSSQSAFSSMSRRVYSTSSSAGSGGGSPAVGSVCYARGRCGGGGYGIHGRGFGSRSLYNLGGSRSISINLMGRSTSGFCQGGGVGGFGGGRGFGVGSTGAGGFGGGGFGGAGFGTSNFGLGGFGPYCPPGGIQEVTINQSLLEPLHLEVDPEIQRIKTQEREQIMVLNNKFASFIDKVRFLEQQNQVLQTKWELLQQVNTSTGTNNLEPLLENYIGDLRRQVDLLSAEQMRQNAEVRSMQDVVEDYKSKYEDEINKRTGSENDFVVLKKDVDAAYVSKVDLESRVDTLTGEVNFLKYLFLTELSQVQTHISDTNVILSMDNNRSLDLDSIIDAVRTQYELIAQRSKDEAEALYQTKYQELQITAGRHGDDLKNSKMEIAELNRTVQRLQAEISNVKKQIEQMQSLISDAEERGEQALQDAWQKLQDLEEALQQSKEELARLLRDYQAMLGVKLSLDVEIATYRQLLEGEESRMSGELQSHVSISVQNSQVSVNGGAGGGGSYGSGGYGGGSGGGYGGGRSYRGGGARGRSGGGYGSGCGGGGGSYGGSGRSGRGSSRVQIIQTSTNTSHRRILE
B4: ASNS_HUMAN (protein, UniProt P08243 2-561, looked up)
Asparagine synthetase …: CGIWALFGSDDCLSVQCLSAMKIAHRGPDAFRFENVNGYTNCCFGFHRLAVVDPLFGMQPIRVKKYPYLWLCYNGEIYNHKKMQQHFEFEYQTKVDGEIILHLYDKGGIEQTICMLDGVFAFVLLDTANKKVFLGRDTYGVRPLFKAMTEDGFLAVCSEAKGLVTLKHSATPFLKVEPFLPGHYEVLDLKPNGKVASVEMVKYHHCRDVPLHALYDNVEKLFPGFEIETVKNNLRILFNNAVKKRLMTDRRIGCLLSGGLDSSLVAATLLKQLKEAQVQYPLQTFAIGMEDSPDLLAARKVADHIGSEHYEVLFNSEEGIQALDEVIFSLETYDITTVRASVGMYLISKYIRKNTDSVVIFSGEGSDELTQGYIYFHKAPSPEKAEEESERLLRELYLFDVLRADRTTAAHGLELRVPFLDHRFSSYYLSLPPEMRIPKNGIEKHLLRETFEDSNLIPKEILWRPKEAFSDGITSVKNSWFKILQEYVEHQVDDAMMANAAQKFPFNTPKTKEGYYYRQVFERHYPGRADWLSHYWMPKWINATDPSARTLTHYKSAVKA
B5: TCPD_HUMAN (protein, UniProt P50991 2-539, looked up)
T-complex protein 1 subunit …: PENVAPRSGATAGAAGGRGKGAYQDRDKPAQIRFSNISAAKAVADAIRTSLGPKGMDKMIQDGKGDVTITNDGATILKQMQVLHPAARMLVELSKAQDIEAGDGTTSVVIIAGSLLDSCTKLLQKGIHPTIISESFQKALEKGIEILTDMSRPVELSDRETLLNSATTSLNSKVVSQYSSLLSPMSVNAVMKVIDPATATSVDLRDIKIVKKLGGTIDDCELVEGLVLTQKVSNSGITRVEKAKIGLIQFCLSAPKTDMDNQIVVSDYAQMDRVLREERAYILNLVKQIKKTGCNVLLIQKSILRDALSDLALHFLNKMKIMVIKDIEREDIEFICKTIGTKPVAHIDQFTADMLGSAELAEEVNLNGSGKLLKITGCASPGKTVTIVVRGSNKLVIEEAERSIHDALCVIRCLVKKRALIAGGGAPEIELALRLTEYSRTLSGMESYCVRAFADAMEVIPSTLAENAGLNPISTVTELRNRHAQGEKTAGINVRKGGISNILEELVVQPLLVSVSALTLATETVRSILKIDDVVNTR
B6: CLPB_HUMAN (protein, UniProt Q9H078 37-707, looked up)
Mitochondrial disaggregase: VTTGSLGEPQWLRVATGGRPGTSPALFSGRGAATGGRQGGRFDTKCLAAATWGRLPGPEETLPGQDSWNGVPSRAGLGMCALAAALVVHCYSKSPSNKDAALLEAARANNMQEVSRLLSEGADVNAKHRLGWTALMVAAINRNNSVVQVLLAAGADPNLGDDFSSVYKTAKEQGIHSLEDGGQDGASRHITNQWTSALEFRRWLGLPAGVLITREDDFNNRLNNRASFKGCTALHYAVLADDYRTVKELLDGGANPLQRNEMGHTPLDYAREGEVMKLLRTSEAKYQEKQRKREAEERRRFPLEQRLKEHIIGQESAIATVGAAIRRKENGWYDEEHPLVFLFLGSSGIGKTELAKQTAKYMHKDAKKGFIRLDMSEFQERHEVAKFIGSPPGYVGHEEGGQLTKKLKQCPNAVVLFDEVDKAHPDVLTIMLQLFDEGRLTDGKGKTIDCKDAIFIMTSNVASDEIAQHALQLRQEALEMSRNRIAENLGDVQISDKITISKNFKENVIRPILKAHFRRDEFLGRINEIVYFLPFCHSELIQLVNKELNFWAKRAKQRHNITLLWDREVADVLVDGYNVHYGARSIKHEVERRVVNQLAAAYEQDLLPGGCTLRITVEDSDKQLLKSPELPSPQAEKRLPKLRLEIIDKDSKTRRLDIRAPLHPEKVCNTI
B7: PSPC1_HUMAN (protein, UniProt Q8WXF1 1-523, looked up)
Paraspeckle component 1: MMLRGNLKQVRIEKNPARLRALESAVGESEPAAAAAMALALAGEPAPPAPAPPEDHPDEEMGFTIDIKSFLKPGEKTYTQRCRLFVGNLPTDITEEDFKRLFERYGEPSEVFINRDRGFGFIRLESRTLAEIAKAELDGTILKSRPLRIRFATHGAALTVKNLSPVVSNELLEQAFSQFGPVEKAVVVVDDRGRATGKGFVEFAAKPPARKALERCGDGAFLLTTTPRPVIVEPMEQFDDEDGLPEKLMQKTQQYHKEREQPPRFAQPGTFEFEYASRWKALDEMEKQQREQVDRNIREAKEKLEAEMEAARHEHQLMLMRQDLMRRQEELRRLEELRNQELQKRKQIQLRHEEEHRRREEEMIRHREQEELRRQQEGFKPNYMENREQEMRMGDMGPRGAINMGDAFSPAPAGNQGPPPMMGMNMNNRATIPGPPMGPGPAMGPEGAANMGTPMMPDNGAVHNDRFPQGPPSQMGSPMGSRTGSETPQAPMSGVGPVSGGPGGFGRGSQGGNFEGPNKRRRY

System: KDM4A-I71AzF
Assay: CASI: photo-crosslinking with HEK293T cell extracts, StrepTactin enrichment and LC-MS/MS proteomics;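 further: lysates from HEK293T cells pretreated with a KDM4 inhibitor to raise proteome methylation, affinity-purified after ±UV, gel-resolved, trypsin-digested, with exclusive unique peptides per protein averaged per condition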
Assay type: binding, human
Settings: sheet "Final results but with 0.01"

| Molecule | Fold change (+UV/-UV) |
| --- | --- |
| B1 | 2 |
| B2 | 0 |
| B3 | 4 |
| B4 | 2 |
| B5 | 0 |
| B6 | 2 |
| B7 | 1.667 |
